Source: US9266964

Target: human plasma kallikrein (human, UniProt P03952 20-390; P03952 391-638)
Assay: cell-based or functional assay

human plasma kallikrein, sequence (P03952 20-390, chain 1 of 2): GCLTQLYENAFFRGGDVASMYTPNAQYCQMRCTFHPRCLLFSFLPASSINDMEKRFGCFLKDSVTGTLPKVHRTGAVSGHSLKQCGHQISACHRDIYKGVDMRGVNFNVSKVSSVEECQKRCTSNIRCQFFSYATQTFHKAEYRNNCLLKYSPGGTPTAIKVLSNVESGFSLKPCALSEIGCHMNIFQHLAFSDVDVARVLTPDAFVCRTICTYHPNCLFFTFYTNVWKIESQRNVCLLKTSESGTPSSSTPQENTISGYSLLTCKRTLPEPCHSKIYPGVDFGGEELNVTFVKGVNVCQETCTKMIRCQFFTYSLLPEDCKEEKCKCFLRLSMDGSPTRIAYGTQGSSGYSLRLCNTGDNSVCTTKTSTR
human plasma kallikrein, sequence (P03952 391-638, chain 2 of 2): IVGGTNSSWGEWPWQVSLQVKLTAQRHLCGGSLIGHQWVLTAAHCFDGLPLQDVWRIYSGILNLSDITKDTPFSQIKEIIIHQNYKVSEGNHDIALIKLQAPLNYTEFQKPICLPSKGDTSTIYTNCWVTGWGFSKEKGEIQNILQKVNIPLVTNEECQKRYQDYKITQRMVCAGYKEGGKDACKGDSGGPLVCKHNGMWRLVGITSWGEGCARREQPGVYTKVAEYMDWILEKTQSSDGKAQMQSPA

Binder | % inhibition at 10 nM
M197-A01 (Fab, V domains shown) VH: EVQLLESGGGLVQPGGSLRLSCAASGFTFSIYDMIWVRQAPGKGLEWVSSIYPSGGNTSYADSVKGRFTISRDNSKNTLYLQMNSLRAEDTAVYYCAYRRTGIPRRDAFDIWGQGTMVTVSS VL: DIQMTQSPSTLSASVGDRVTITCRASQSISSWLAWYQQKPGKAPNLLIYKASTLESGVPSRFSGSGSGTEFTLTISSLQPDDFATYYCQQYNTYWTFGQGTKVEIK | 95.3%
M198-G07 (Fab, V domains shown) VH: EVQLLESGGGLVQPGGSLRLSCAASGFTFSIYDMTWVRQAPGKGLEWVSSIYPSGGQTIYADSVKGRFTISRDNSKNTLYLQMNSLRAEDTAVYYCAYRRTGIPRRDAFDIWGQGTMVTVSS VL: DIQMTQSPSTLSASVGDRVTITCRASQSISSWLAWYQQKPGKAPNLLIYKASTLESGVPSRFSGSGSGTEFTLTISSLQPDDFATYYCQQYNTYWTFGQGTKVEIK | 94.9%
M197-H10 (Fab, V domains shown) VH: EVQLLESGGGLVQPGGSLRLSCAASGFTFSSYNMHWVRQAPGKGLEWVSSIVPSGGKTNYADSVKGRFTISRDNSKNTLYLQMNSLRAEDTAVYYCAYRRTGIPRRDAFDIWGQGTMVTVSS VL: DIQMTQSPSTLSASVGDRVTITCRASQSISSWLAWYQQKPGKAPNLLIYKASTLESGVPSRFSGSGSGTEFTLTISSLQPDDFATYYCQQYNTYWTFGQGTKVEIK | 94.1%
M197-A08 (Fab, V domains shown) VH: EVQLLESGGGLVQPGGSLRLSCAASGFTFSIYSMQWVRQAPGKGLEWVSSIGSSGGKTLYADSVKGRFTISRDNSKNTLYLQMNSLRAEDTAVYYCAYRRTGIPRRDAFDIWGQGTMVTVSS VL: DIQMTQSPSTLSASVGDRVTITCRASQSISSWLAWYQQKPGKAPNLLIYKASTLESGVPSRFSGSGSGTEFTLTISSLQPDDFATYYCQQYNTYWTFGQGTKVEIK | 93.7%
M198-B09 (Fab, V domains shown) VH: EVQLLESGGGLVQPGGSLRLSCAASGFTFSVYSMTWVRQAPGKGLEWVSSIGSSGGSTTYADSVKGRFTISRDNSKNTLYLQMNSLRAEDTAVYYCAYRRTGIPRRDAFDIWGQGTMVTVSS VL: DIQMTQSPSTLSASVGDRVTITCRASQSISSWLAWYQQKPGKAPNLLIYKASTLESGVPSRFSGSGSGTEFTLTISSLQPDDFATYYCQQYNTYWTFGQGTKVEIK | 93.5%
M198-E09 (Fab, V domains shown) VH: EVQLLESGGGLVQPGGSLRLSCAASGFTFSIYDMNWVRQAPGKGLEWVSSIYPSGGRTRYADSVKGRFTISRDNSKNTLYLQMNSLRAEDTAVYYCAYRRTGIPRRDAFDIWGQGTMVTVSS VL: DIQMTQSPSTLSASVGDRVTITCRASQSISSWLAWYQQKPGKAPNLLIYKASTLESGVPSRFSGSGSGTEFTLTISSLQPDDFATYYCQQYNTYWTFGQGTKVEIK | 93.1%
M198-C10 (Fab, V domains shown) VH: EVQLLESGGGLVQPGGSLRLSCAASGFTFSHYMGMNWVRQAPGKGLEWVSSIVPSGGWTQYADSVKGRFTISRDNSKNTLYLQMNSLRAEDTAVYYCAYRRTGIPRRDAFDIWGQGTMVTVSS VL: DIQMTQSPSTLSASVGDRVTITCRASQSISSWLAWYQQKPGKAPNLLIYKASTLESGVPSRFSGSGSGTEFTLTISSLQPDDFATYYCQQYNTYWTFGQGTKVEIK | 93%
M197-E12 (Fab, V domains shown) VH: EVQLLESGGGLVQPGGSLRLSCAASGFTFSTYTMRWVRQAPGKGLEWVSSIYPSGGKTQYADSVKGRFTISRDNSKNTLYLQMNSLRAEDTAVYYCAYRRTGIPRRDAFDIWGQGTMVTVSS VL: DIQMTQSPSTLSASVGDRVTITCRASQSISSWLAWYQQKPGKAPNLLIYKASTLESGVPSRFSGSGSGTEFTLTISSLQPDDFATYYCQQYNTYWTFGQGTKVEIK | 93%
M198-F04 (Fab, V domains shown) VH: EVQLLESGGGLVQPGGSLRLSCAASGFTFSIYDMWWVRQAPGKGLEWVSSIRPSGGITKYADSVKGRFTISRDNSKNTLYLQMNSLRAEDTAVYYCAYRRTGIPRRDAFDIWGQGTMVTVSS VL: DIQMTQSPSTLSASVGDRVTITCRASQSISSWLAWYQQKPGKAPNLLIYKASTLESGVPSRFSGSGSGTEFTLTISSLQPDDFATYYCQQYNTYWTFGQGTKVEIK | 92.9%
M197-H11 (Fab, V domains shown) VH: EVQLLESGGGLVQPGGSLRLSCAASGFTFSIYNMIWVRQAPGKGLEWVSSIYPSGGWTTYADSVKGRFTISRDNSKNTLYLQMNSLRAEDTAVYYCAYRRTGIPRRDAFDIWGQGTMVTVSS VL: DIQMTQSPSTLSASVGDRVTITCRASQSISSWLAWYQQKPGKAPNLLIYKASTLESGVPSRFSGSGSGTEFTLTISSLQPDDFATYYCQQYNTYWTFGQGTKVEIK | 92.9%
M197-F01 (Fab, V domains shown) VH: EVQLLESGGGLVQPGGSLRLSCAASGFTFSIYHMYWVRQAPGKGLEWVSSIGPSGGPTGYADSVKGRFTISRDNSKNTLYLQMNSLRAEDTAVYYCAYRRTGIPRRDAFDIWGQGTMVTVSS VL: DIQMTQSPSTLSASVGDRVTITCRASQSISSWLAWYQQKPGKAPNLLIYKASTLESGVPSRFSGSGSGTEFTLTISSLQPDDFATYYCQQYNTYWTFGQGTKVEIK | 92.6%
M198-E11 (Fab, V domains shown) VH: EVQLLESGGGLVQPGGSLRLSCAASGFTFSTYSMYWVRQAPGKGLEWVSSIYPSGGLTWYADSVKGRFTISRDNSKNTLYLQMNSLRAEDTAVYYCAYRRTGIPRRDAFDIWGQGTMVTVSS VL: DIQMTQSPSTLSASVGDRVTITCRASQSISSWLAWYQQKPGKAPNLLIYKASTLESGVPSRFSGSGSGTEFTLTISSLQPDDFATYYCQQYNTYWTFGQGTKVEIK | 92.5%
M198-H08 (Fab, V domains shown) VH: EVQLLESGGGLVQPGGSLRLSCAASGFTFSIYDMYWVRQAPGKGLEWVSSIGPSGGPTAYADSVKGRFTISRDNSKNTLYLQMNSLRAEDTAVYYCAYRRTGIPRRDAFDIWGQGTMVTVSS VL: DIQMTQSPSTLSASVGDRVTITCRASQSISSWLAWYQQKPGKAPNLLIYKASTLESGVPSRFSGSGSGTEFTLTISSLQPDDFATYYCQQYNTYWTFGQGTKVEIK | 92.3%
M198-F08 (Fab, V domains shown) VH: EVQLLESGGGLVQPGGSLRLSCAASGFTFSVYSMWWVRQAPGKGLEWVSSISSSGGMTEYADSVKGRFTISRDNSKNTLYLQMNSLRAEDTAVYYCAYRRTGIPRRDAFDIWGQGTMVTVSS VL: DIQMTQSPSTLSASVGDRVTITCRASQSISSWLAWYQQKPGKAPNLLIYKASTLESGVPSRFSGSGSGTEFTLTISSLQPDDFATYYCQQYNTYWTFGQGTKVEIK | 91.8%
M202-E06 (Fab, V domains shown) VH: EVQLLESGGGLVQPGGSLRLSCAASGFTFSHYIMMWVRQAPGKGLEWVSGIYSSGGITVYADSVKGRFTISRDNSKNTLYLQMNSLRAEDTAVYYCAYRRRGVPRRDDFDIWGQGTMVTVSS VL: DIQMTQSPSTLSASVGDRVTITCRASQSISSWLAWYQQKPGKAPNLLIYKASTLESGVPSRFSGSGSGTEFTLTISSLQPDDFATYYCQQYNTYWTFGQGTKVEIK | 91.5%
M195-D12 (Fab, V domains shown) VH: EVQLLESGGGLVQPGGSLRLSCAASGFTFSIYGMFWVRQAPGKGLEWVSGIGPSGGPTKYADSVKGRFTISRDNSKNTLYLQMNSLRAEDTAVYYCAYRRTGIPRRDAFDIWGQGTMVTVSS VL: DIQMTQSPSTLSASVGDRVTITCRASQSISSWLAWYQQKPGKAPNLLIYKASTLESGVPSRFSGSGSGTEFTLTISSLQPDDFATYYCQQYNTYWTFGQGTKVEIK | 90.8%
